Kd data for 1 substance are collected here from article PMC7881136.

The test addresses Kapβ2 (untagged, GST removed) (human) (UniProt Q92973). Kind of test: ITC; 10 μM Kapβ2 in the cell, 100 μM or 200 μM MBP-FUS protein in the syringe; 20 mM Tris–HCl, 150 mM NaCl, 10% glycerol, 2 mM BME; 20 °C; single class of binding sites, global analysis of duplicates or triplicates.

Kapβ2 (untagged, GST removed) (human), sequence (Q92973 9-898): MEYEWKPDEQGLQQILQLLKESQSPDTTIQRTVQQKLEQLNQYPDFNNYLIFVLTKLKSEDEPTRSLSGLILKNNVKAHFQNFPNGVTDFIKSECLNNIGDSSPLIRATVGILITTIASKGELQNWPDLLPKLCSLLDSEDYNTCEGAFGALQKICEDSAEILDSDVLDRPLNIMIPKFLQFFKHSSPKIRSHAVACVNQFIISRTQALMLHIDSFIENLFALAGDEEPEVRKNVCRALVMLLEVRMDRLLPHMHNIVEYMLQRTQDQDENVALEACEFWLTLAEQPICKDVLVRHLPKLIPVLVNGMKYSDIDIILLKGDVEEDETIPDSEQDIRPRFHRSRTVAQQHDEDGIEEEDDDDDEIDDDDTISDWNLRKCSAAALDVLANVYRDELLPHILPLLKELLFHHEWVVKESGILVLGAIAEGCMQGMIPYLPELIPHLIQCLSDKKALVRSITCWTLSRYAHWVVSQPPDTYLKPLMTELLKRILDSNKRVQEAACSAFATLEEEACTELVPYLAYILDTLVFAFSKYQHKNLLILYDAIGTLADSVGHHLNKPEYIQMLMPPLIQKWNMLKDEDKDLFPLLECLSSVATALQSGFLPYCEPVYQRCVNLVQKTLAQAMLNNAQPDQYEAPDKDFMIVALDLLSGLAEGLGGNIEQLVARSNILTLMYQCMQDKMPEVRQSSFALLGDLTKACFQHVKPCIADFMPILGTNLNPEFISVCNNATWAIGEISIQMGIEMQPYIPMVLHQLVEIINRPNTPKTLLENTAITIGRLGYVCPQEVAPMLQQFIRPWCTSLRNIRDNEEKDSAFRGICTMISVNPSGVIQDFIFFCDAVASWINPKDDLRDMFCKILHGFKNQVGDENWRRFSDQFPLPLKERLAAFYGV

For the substance “MBP-FUS(453–500) (RGG3) (from UniProt P35637 453-500) (domain or fragment)”, the Kd was 6 µM.
